Assays:
[1] = target: T1, recombinant human thymidine kinase 1 (hTK1) protein (human, UniProt P04183 1-234, limits assumed); assay: indirect ELISA on coated hTK1, anti-full-length IgY biotin detection
T1 construct: ELISA coating antigen at 0.5 ug/ml, 100 ul per well (50 ng/well); also called recombinant hTK1 antigen
T1 sequence (looked up): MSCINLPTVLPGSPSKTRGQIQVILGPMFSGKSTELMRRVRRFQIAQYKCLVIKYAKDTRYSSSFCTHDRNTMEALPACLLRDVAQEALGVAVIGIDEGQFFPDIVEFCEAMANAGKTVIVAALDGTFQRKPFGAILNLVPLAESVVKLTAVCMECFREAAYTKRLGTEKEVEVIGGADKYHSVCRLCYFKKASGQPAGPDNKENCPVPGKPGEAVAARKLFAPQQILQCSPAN
Experimental: (§1) The recombinant IgY scFv antibody contains not only the hypervariable region that binds to hTK1, but also the highly conserved framework region (FR). In this embodiment, the HA 9-peptide tag of human influenza hemagglutinin was added. Therefore, when detecting recombinant single-chain antibodies by indirect ELISA, biotin-labeled anti-full-length IgY secondary antibody and horseradish peroxidase-labeled anti-human influenza hemagglutinin HA 9-peptide monoclonal antibodies were used as labeled antibodies, to detect recombinant anti-hTK1 single-chain antibody expressed in CHO cells. The supernatant of the transfected cells was collected and the expression level of recombinant scFv antibody was detected by ELISA experiment. The specific method is as follows:
(§2) The OD value of the CHO cell supernatant transfected with the scFv antibody gene is 6.6 times that of the CHO cell supernatant not transfected, and the ratio of the recombinant hTK1 antigen to the negative antigen control is 6.9.

[2] = target: T1, recombinant human thymidine kinase 1 …; assay: indirect ELISA, hTK1-coated wells against coating-solution wells, anti-full-length IgY biotin detection
Experimental: as §1, §2

[3] = target: T1, recombinant human thymidine kinase 1 …; assay: indirect ELISA, hTK1-coated wells against coating-solution wells, HRP-labeled anti-HA monoclonal antibody detection
Experimental: as §1, §2

[4] = target: T1, recombinant human thymidine kinase 1 …; assay: indirect ELISA on coated hTK1, HRP-labeled anti-HA monoclonal antibody detection
Experimental: as §1, §2

B1: recombinant anti-hTK1 chicken IgY single-chain variable fragment (scFv) antibody expressed in CHO cells (scFv)
scFv: MAAVTLDESGGGLQTPGGALSLVCKGSGFTFSSDAMGWMRQAPGKGLEFVARINSAGSYTDYGSAVDGRATISRDNGQSTVRLQLNNLRAEDTSTYFCAKSPGGFSCAYGLCWDAAGSIDAWGHGTEVIVSSGGGSGGGGSGGGGSGGGSALTQPSSVSANLGGTVKITCSGGANYYGWFQQKTPGSAPVSLIYESTKRPSNIPSRFSGSKSGSTGTLTITGVRADDEAVYYCGTYDSSTHTSIFGAGTTLYPYDVPDYA
notes: Tested as unpurified supernatant of transiently transfected CHO cells; also called recombinant IgY scFv antibody; recombinant anti-hTK1 single-chain antibody
OD ratio to the CHO cell supernatant not transfected [1]: 6.6 fold | ratio of the recombinant hTK1 antigen to the negative antigen control [2]: 6.9 ratio | ratio of the recombinant hTK1 antigen to the negative antigen control [3]: 0.287 ratio | OD ratio to the untransfected CHO cell supernatant [4]: 2.6 fold
